Substitutions are numbered along the chain they refer to. Blank lines part the entries; values can stand above or below the binder they belong to.
What was measured:
[1] = biological target: dogCLDN18 (Canis lupus familiaris); assay: flow cytometry; HEK293T dogCLDN18 moxGFP mass pop, 0.1ug; control HEK293T parental 0.1ug 3,276.00
rat CLDN18 (rat) [2] = biological target: rat CLDN18 (rat) (UniProt Q5I0E5); assay: flow cytometry; HEK293T rat CLDN18 moxGFP Clone5, 10ug; control HEK293T parental 10ug 12,759.00
[3] = biological target: dogCLDN18 (Canis lupus familiaris); assay: flow cytometry; HEK293T dogCLDN18 moxGFP mass pop, 1ug; control HEK293T parental 1ug 5,328.00
[4] = biological target: Claudin-18.1 (CLDN18.1) (human) (UniProt P56856); assay: flow cytometry; HEK293T human CLDN18.1 mGFP 2B14, 1ug; control HEK293T parental 1ug 5,328.00
[5] = biological target: Claudin-18.1 (CLDN18.1) (human) (UniProt P56856); assay: flow cytometry; HEK293T human CLDN18.1 mGFP 2B14, 10ug; control HEK293T parental 10ug 12,759.00
rat CLDN18 (rat) [6] = biological target: rat CLDN18 (rat) (UniProt Q5I0E5); assay: flow cytometry; HEK293T rat CLDN18 moxGFP Clone5, 0.1ug; control HEK293T parental 0.1ug 3,276.00
[7] = biological target: Claudin-18.1 (CLDN18.1) (human) (UniProt P56856); assay: flow cytometry; HEK293T human CLDN18.1 mGFP 2B14, 0.1ug; control HEK293T parental 0.1ug 3,276.00
[8] = biological target: dogCLDN18 (Canis lupus familiaris); assay: flow cytometry; HEK293T dogCLDN18 moxGFP mass pop, 10ug; control HEK293T parental 10ug 12,759.00
rat CLDN18 (rat) [9] = biological target: rat CLDN18 (rat) (UniProt Q5I0E5); assay: flow cytometry; HEK293T rat CLDN18 moxGFP Clone5, 1ug; control HEK293T parental 1ug 5,328.00
rat CLDN18 (rat) [10] = biological target: rat CLDN18 (rat) (UniProt Q5I0E5); assay: flow cytometry; HEK293T rat CLDN18 moxGFP Clone5, 0.1ug; control HEK293T parental 0.1ug 3,589.50
[11] = biological target: dogCLDN18 (Canis lupus familiaris); assay: flow cytometry; HEK293T dogCLDN18 moxGFP mass pop, 1ug; control HEK293T parental 1ug 8,287.00
[12] = biological target: dogCLDN18 (Canis lupus familiaris); assay: flow cytometry; HEK293T dogCLDN18 moxGFP mass pop, 0.1ug; control HEK293T parental 0.1ug 3,589.50
rat CLDN18 (rat) [13] = biological target: rat CLDN18 (rat) (UniProt Q5I0E5); assay: flow cytometry; HEK293T rat CLDN18 moxGFP Clone5, 1ug; control HEK293T parental 1ug 8,287.00
[14] = biological target: Claudin-18.1 (CLDN18.1) (human) (UniProt P56856); assay: flow cytometry; HEK293T human CLDN18.1 mGFP 2B14, 1ug; control HEK293T parental 1ug 8,287.00
[15] = biological target: dogCLDN18 (Canis lupus familiaris); assay: flow cytometry; HEK293T dogCLDN18 moxGFP mass pop, 10ug; control HEK293T parental 10ug 29,683.50
[16] = biological target: Claudin-18.1 (CLDN18.1) (human) (UniProt P56856); assay: flow cytometry; HEK293T human CLDN18.1 mGFP 2B14, 10ug; control HEK293T parental 10ug 29,683.50
[17] = biological target: Claudin-18.1 (CLDN18.1) (human) (UniProt P56856); assay: flow cytometry; HEK293T human CLDN18.1 mGFP 2B14, 0.1ug; control HEK293T parental 0.1ug 3,589.50
rat CLDN18 (rat) [18] = biological target: rat CLDN18 (rat) (UniProt Q5I0E5); assay: flow cytometry; HEK293T rat CLDN18 moxGFP Clone5, 10ug; control HEK293T parental 10ug 29,683.50
[19] = biological target: Claudin-18.1 (CLDN18.1) (human) (UniProt P56856); assay: flow cytometry; HEK293T human CLDN18.1 mGFP 2B14, 1ug; control HEK293T parental 1ug 4,198.00
rat CLDN18 (rat) [20] = biological target: rat CLDN18 (rat) (UniProt Q5I0E5); assay: flow cytometry; HEK293T rat CLDN18 moxGFP Clone5, 0.1ug; control HEK293T parental 0.1ug 3,268.00
[21] = biological target: dogCLDN18 (Canis lupus familiaris); assay: flow cytometry; HEK293T dogCLDN18 moxGFP mass pop, 10ug; control HEK293T parental 10ug 16,812.50
[22] = biological target: Claudin-18.1 (CLDN18.1) (human) (UniProt P56856); assay: flow cytometry; HEK293T human CLDN18.1 mGFP 2B14, 0.1ug; control HEK293T parental 0.1ug 3,268.00
[23] = biological target: dogCLDN18 (Canis lupus familiaris); assay: flow cytometry; HEK293T dogCLDN18 moxGFP mass pop, 0.1ug; control HEK293T parental 0.1ug 3,268.00
[24] = biological target: dogCLDN18 (Canis lupus familiaris); assay: flow cytometry; HEK293T dogCLDN18 moxGFP mass pop, 1ug; control HEK293T parental 1ug 4,198.00
rat CLDN18 (rat) [25] = biological target: rat CLDN18 (rat) (UniProt Q5I0E5); assay: flow cytometry; HEK293T rat CLDN18 moxGFP Clone5, 1ug; control HEK293T parental 1ug 4,198.00
rat CLDN18 (rat) [26] = biological target: rat CLDN18 (rat) (UniProt Q5I0E5); assay: flow cytometry; HEK293T rat CLDN18 moxGFP Clone5, 10ug; control HEK293T parental 10ug 16,812.50
[27] = biological target: Claudin-18.1 (CLDN18.1) (human) (UniProt P56856); assay: flow cytometry; HEK293T human CLDN18.1 mGFP 2B14, 10ug; control HEK293T parental 10ug 16,812.50
[28] = biological target: Claudin-18.1 (CLDN18.1) (human) (UniProt P56856); assay: flow cytometry; HEK293T human CLDN18.1 mGFP 2B14, 1ug; control HEK293T parental 1ug 9,051.00
rat CLDN18 (rat) [29] = biological target: rat CLDN18 (rat) (UniProt Q5I0E5); assay: flow cytometry; HEK293T rat CLDN18 moxGFP Clone5, 10ug; control HEK293T parental 10ug 22,390.50
[30] = biological target: Claudin-18.1 (CLDN18.1) (human) (UniProt P56856); assay: flow cytometry; HEK293T human CLDN18.1 mGFP 2B14, 0.1ug; control HEK293T parental 0.1ug 2,726.00
[31] = biological target: Claudin-18.1 (CLDN18.1) (human) (UniProt P56856); assay: flow cytometry; HEK293T human CLDN18.1 mGFP 2B14, 10ug; control HEK293T parental 10ug 22,390.50
[32] = biological target: dogCLDN18 (Canis lupus familiaris); assay: flow cytometry; HEK293T dogCLDN18 moxGFP mass pop, 0.1ug; control HEK293T parental 0.1ug 2,726.00
rat CLDN18 (rat) [33] = biological target: rat CLDN18 (rat) (UniProt Q5I0E5); assay: flow cytometry; HEK293T rat CLDN18 moxGFP Clone5, 0.1ug; control HEK293T parental 0.1ug 2,726.00
[34] = biological target: dogCLDN18 (Canis lupus familiaris); assay: flow cytometry; HEK293T dogCLDN18 moxGFP mass pop, 1ug; control HEK293T parental 1ug 9,051.00
[35] = biological target: dogCLDN18 (Canis lupus familiaris); assay: flow cytometry; HEK293T dogCLDN18 moxGFP mass pop, 10ug; control HEK293T parental 10ug 22,390.50
rat CLDN18 (rat) [36] = biological target: rat CLDN18 (rat) (UniProt Q5I0E5); assay: flow cytometry; HEK293T rat CLDN18 moxGFP Clone5, 1ug; control HEK293T parental 1ug 9,051.00

Sequence of Claudin-18.1 (CLDN18.1) (human) (P56856 whole entry): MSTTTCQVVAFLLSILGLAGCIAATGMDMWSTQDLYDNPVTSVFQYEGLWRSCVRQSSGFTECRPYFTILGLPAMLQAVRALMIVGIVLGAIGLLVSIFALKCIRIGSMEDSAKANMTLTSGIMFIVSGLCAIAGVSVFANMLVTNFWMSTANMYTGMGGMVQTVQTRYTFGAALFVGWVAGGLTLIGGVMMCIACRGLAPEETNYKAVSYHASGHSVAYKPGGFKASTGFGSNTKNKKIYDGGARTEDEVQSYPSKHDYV
Sequence of rat CLDN18 (rat) (Q5I0E5 whole entry): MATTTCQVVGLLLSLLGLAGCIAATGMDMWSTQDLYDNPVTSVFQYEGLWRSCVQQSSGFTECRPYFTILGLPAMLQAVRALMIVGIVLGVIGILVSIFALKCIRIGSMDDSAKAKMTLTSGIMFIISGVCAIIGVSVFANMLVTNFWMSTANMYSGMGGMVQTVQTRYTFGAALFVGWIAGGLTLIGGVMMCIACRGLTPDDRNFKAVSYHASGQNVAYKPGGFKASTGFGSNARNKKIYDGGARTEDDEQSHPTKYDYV

B3: 02-0358-h3 (antibody, V domains shown)
VH: EVQLVESGGGLVQPGGSLRLSCAVSGFTFSSFGMHWVRQAPGKGLEWVAYISSGTTNIYYADSVKGRFTVSRDNAKNSLYLQMNSLRAEDTAVYYCVRSGYYGNSLDYWGQGTLVTVSS
VL: DIVMTQSPDSLAVSLGERVTMNCKSSQSLFNSGNQRNYLTWYQQKPGQPPKLLIYWASTRESGVPDRFSGSGSGTDFTLTISSVQAEDVAVYYCQNVYIYPLTFGQGTKLEIK
flow cytometry signal [19]: 55200 | flow cytometry signal (rat CLDN18 (rat) [20]): 3720 | flow cytometry signal [21]: 11700 | flow cytometry signal [22]: 50400 | flow cytometry signal [23]: 3700 | flow cytometry signal [24]: 4230 | flow cytometry signal (rat CLDN18 (rat) [25]): 5070 | flow cytometry signal (rat CLDN18 (rat) [26]): 16700 | flow cytometry signal [27]: 99100

B4: 02-0307-h6 (antibody, V domains shown)
VH: EVQLLESGGGLVQPGGSLRLSCAASGFTFSSYTMSWVRQAPGKGLEWVATIIIGGSYTYYADSVKGRFTISRDNSKNTLYLQMNSLRAEDTAVYYCTRLVKGNAMDYWGQGTLVTVSS
VL: B3 VL with F30L, N31S, R36K, T40S, I54F, V97D, I99S, L102F
flow cytometry signal [28]: 68800 | flow cytometry signal (rat CLDN18 (rat) [29]): 30700 | flow cytometry signal [30]: 53100 | flow cytometry signal [31]: 156000 | flow cytometry signal [32]: 3690 | flow cytometry signal (rat CLDN18 (rat) [33]): 3600 | flow cytometry signal [34]: 9480 | flow cytometry signal [35]: 21800 | flow cytometry signal (rat CLDN18 (rat) [36]): 10900

Results, then the binder that gave them:

flow cytometry signal [1]: 3860 | flow cytometry signal (rat CLDN18 (rat) [2]): 13800 | flow cytometry signal [3]: 6030 | flow cytometry signal [4]: 54100 | flow cytometry signal [5]: 76900 | flow cytometry signal (rat CLDN18 (rat) [6]): 3810 | flow cytometry signal [7]: 52100 | flow cytometry signal [8]: 10200 | flow cytometry signal (rat CLDN18 (rat) [9]): 7320
B1: HuAb307-3 (antibody, V domains shown)
VH: B4 VH
VL: B3 VL with F30L, R36K, T40S, I54F, V97D, I99S, L102F

flow cytometry signal (rat CLDN18 (rat) [10]): 4580 | flow cytometry signal [11]: 8760 | flow cytometry signal [12]: 4700 | flow cytometry signal (rat CLDN18 (rat) [13]): 12400 | flow cytometry signal [14]: 64800 | flow cytometry signal [15]: 20600 | flow cytometry signal [16]: 140000 | flow cytometry signal [17]: 52700 | flow cytometry signal (rat CLDN18 (rat) [18]): 31200
B2: 02-0358-h5 (antibody, V domains shown)
VH: B3 VH
VL: B3 VL with N31S

Reference: US11834499
